According to article PMC11728703:
Values joined by “and” are separate entries in the source; they are usually repeats but may differ in a detail not shown here. Equal entries are not always repeated.

Molecular target: Bacteriophage P22 small terminase subunit gp3 (S-terminase), full length (bacteriophage P22)
Test: native MS; co-purified S:L-terminase complex (peak 2) exchanged into 150 mM ammonium acetate pH 8.0, 2 uM, nanoflow electrospray capillary; modified QTOF-2 and Exactive Plus EMR Orbitrap

Sequence of Bacteriophage P22 small terminase subunit gp3 (S-terminase), full length (bacteriophage P22) (P04893 whole entry): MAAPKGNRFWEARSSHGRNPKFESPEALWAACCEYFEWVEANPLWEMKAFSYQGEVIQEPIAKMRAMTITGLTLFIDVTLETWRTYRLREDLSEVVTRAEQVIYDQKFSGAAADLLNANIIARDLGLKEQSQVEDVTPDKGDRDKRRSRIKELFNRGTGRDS

Substance	stoichiometry N (gp2 per 1 (gp3)9)	stoichiometry N (gp2 per 2 (gp3)9)	stoichiometry N (gp2 per 3 (gp3)9)	stoichiometry N
Bacteriophage P22 large terminase subunit gp2 (L-terminase), full length (enzyme)	1 and 2	5	7	–
Bacteriophage P22 small terminase subunit gp3 (S-terminase), full length (natural protein)	–	–	–	9
